The labels stand for the following.
B1: SKAI-DS64 (antibody, V domains shown)
VH: EVQLLESGGGLVQPGGSLRLSCAASGFTFSDYSMSWVRQAPGKGLEWVSGIYHSDGSKYYADSVKGRFTISRDNSKNTLYLQMNSLRAEDTAVYYCARFDPVFDYWGQGTLVTV
VL: QSVLTQPPSASGTPGQRVTISCSGSSSNIGSNAVSWYQQLPGTAPKLLIYDNNHRPSGVPDRFSGSKSGTSASLAISGLRSEDEADYYCGSWDDSLNAYVFGGGTKLTVL
notes: also called SKAI-DS64 human IgG antibody
B2: SKAI-DS1 (antibody, V domains shown)
VH: EVQLLESGGGLVQTGGSLRLSCAASGFTFSDYAMSWVRQAPGKGLEWVSWIYSNDGNKYYADSVKGRFTISRDNSKNTLYLQMNSLRAEDTAVYYCARFPVPSWRNTWSSYDAMDVWGQGTLVTV
VL: QSVLTQPPSASGTPGRRVTISCTGSSSNIGSNYVSWYQQLPGTAPKLLIYSDSNRPSGVPDRFSGSKSGTSASLAISGLRSEDEADYYCGTWDASLSGYVFGGGTKLTVL
notes: also called SKAI-DS1 human IgG antibody
B3: SKAI-DS15 (antibody, V domains shown)
VH: EVQLLESGGGLVQPGGSLRLSCAASGFTFSDYDMSWVRQAPGKGLEWVSMIYSGSSSKYYADSVKGRFTISRDNSKNTLYLQMNSLRAEDTAVYYCARVTGTCHSGSCYYSDAMDVWGQGTLVTV
VL: B2 VL with R16Q, T23S, Y33D, S35N, S51D, T91A, A94D
notes: also called SKAI-DS15 human IgG antibody
B4: SKAI-DS66 (antibody, V domains shown)
VH: B1 VH with S33A, G50A, H53P, S54G, D55G, K58T, F99N, D100L, P101F, V102G
VL: B1 VL with S23T, S35Y, N52D, N53S, H54N, N97S
notes: also called SKAI-DS66 human IgG antibody
B5: SKAI-DS3 (antibody, V domains shown)
VH: EVQLLESGGGLVQPGGSLRLSCAASGFTFSDYSMSWVRQAPGKGLEWVSAISSDSSSTYYADSVKGRFTISRDNSENTLYLQMNSLRAEDTAVYYCAKAILRCIPLGCYYADAMDVWGQGTLVTV
VL: B2 VL with R16Q, Y33D, S35T, S51A, N54K, T91A, A94Y, G98A
notes: also called SKAI-DS3 human IgG antibody
B6: SKAI-DS16 (antibody, V domains shown)
VH: EVQLLESGGGLVQPGGSLRLSCAASGFTFSDYSMSWVRQAPGKGLEWVSWIYPDNGNTYYADSVKGRFTISRDNSKNTLYLQMNSLRAEDTAVYYCAKPKTSFDYWGQGTLVTV
VL: B2 VL with R16Q, T23S, S35Y, S51D, D61G, A94Y, S97N
notes: also called SKAI-DS16 human IgG antibody
B7: SKAI-DS7 scFv (scFv, V domains shown)
VH: B1 VH with P14T, S33A, D55G, S57N, K58T, F99D, D100A, P101G, V102P, T113A
VL: B1 VL
B8: SKAI-DS1 scFv (scFv, V domains shown)
VH: B2 VH
VL: B2 VL

Positions count from the first letter of the chain named.

Eight molecules from patent publication US20250002562A1 (Scripps Research, published 2025) can be followed below.

One assay has as its target T1, Omicron (B.1.1.529) RBD antigen (Genscript) (SARS-CoV2 Omicron variant (B.1.1.529), UniProt P0DTC2 319-541).
T1 construct: domain: RBD; also called Omicron RBD; Omicron variant RBD
Nature of the assay: ELISA on RBD antigen, human IgG at 1 µg/mL, O.D. 450 nm. A general note: ELISA stands for enzyme-linked immunosorbent assay.
In the case of B1, the binding result is given as “no binding (tested: 1 µg/mL)”. Consider B2, for which the binding result is given as “no binding (tested: 1 µg/mL)”. On to B3, for which the binding result was “no binding (tested: 1 µg/mL)”. As to B4, the binding result is “no binding (tested: 1 µg/mL)”. As for B5, the binding result is given as “no binding (tested: 1 µg/mL)”. As to B6, the binding result is “no binding (tested: 1 µg/mL)”.

The target of another assay is T2, SARS-CoV-2-B.1.617.2 (Delta variant) RBD (SARS-CoV-2 B.1.617.2 (Delta variant), UniProt P0DTC2 319-541).
T2 construct: domain: RBD; also called Delta RBD; Delta antigen
The description is as above.
Take B1: the binding result was “binds”. With B2, the binding result was “binds”. Take B3: the binding result is “no binding (tested: 1 µg/mL)”. On the same count and under the same terms, to B4 belongs “binds”. The same measure, in the same setting: for B5 the value was “no binding (tested: 1 µg/mL)”; for B6, “no binding (tested: 1 µg/mL)”.

The next assay has as its target T2, SARS-CoV-2-B.1.617.2 (Delta variant) RBD. Nature of the assay: ELISA of scFv from individual colonies on RBD antigens.
As to B7, the binding result is “binds”.

On to B8, for which the binding result is on record as “binds”.
